# Data: patent publication US20250195629A1, “SITE-SPECIFIC BRAIN THERAPEUTICS” (William Marsh Rice University, priority 2023, published 2025)
# Columns and labels:
# [1] = previously available approach; cited from earlier work
# [2] = Ex vivo BLI of brain sections, retention of unmodified or engineered RLuc8.6; assay type: in vivo, mouse
# From the text: (§1) FUS-BBBO—C57BL/6J male or female mice (12-18 weeks of age) were anaesthetized with 2.5% isoflurane in 1.5% O2 and shaved on top of skull using a trimmer. A catheter, made by a 30-gauge needle connected to PE10 tubing, was inserted into the tail vein, affixed in place using tissue glue and then flushed with 10 units (U) mL^−1 of heparin in sterile saline (0.9% NaCl). Subsequently, the mouse was mounted on the RK50 (FUS Instruments) stereotactic platform using the ear bars and bite bar/nose cone. A midline scalp incision was vertically made to expose the skull after disinfecting the site using three alternating scrubs of chlorhexidine scrub and chlorhexidine solution. The locations of Lambda and Bregma were registered in the RK50 software using the guild pointer. Next, sterile ultrasound gel was applied on the surface of skull before placing the ultrasound transducer in a tank, both of which were filled with degassed water. The mice were then sequentially injected via tail vein with purified recombinant protein in PBS buffer and approximately 1.5×10^6 DEFINITY microbubbles (Lantheus) per gram of body weight diluted in sterile saline. Immediately after injections of protein and microbubbles, the mice were insonated using RK-50 FUS system with axial and lateral diameter of 5 mm and 1.2 mm, respectively.
# Ex vivo analysis of engineered RLuc8.6—FUS was performed to target three sites in the left hemisphere of C57BL6J mice (n=5 mice per group) immediately after systemic administration of RLuc8.6 (20 mg/mL, 100 mg/kg) or engineered variant (20 mg/mL, 104 mg/kg) and microbubbles by tail vein injection. The dose of engineered RLuc8.6 was increased accordingly based on their molecular weight for injecting the same number of molecules as unmodified RLuc8.6. The control group (n=5 mice) was injected intravenously with the same dose of unmodified RLuc8.6 without FUS. The mice were euthanized using CO2 without perfusion at two time points (2-day and 7-day) after FUS-BBBO procedure. Immediately afterwards, the brains were extracted, washed with ˜20 mL PBS buffer in a 50 mL conical tube for 30 s, and then cut into 2 mm sections without olfactory bulb and brainstem using a coronal Slicer (Invitrogen). The sections were individually transferred into a 6-well glass bottom plate (Cellvis) filled with 2 mL PBS buffer. BLI was performed using an IVIS spectrum imager (Perkin Elmer) immediately after adding 1 mL dissolved CTZ (cat #303-INJ, Nanolight Technology) with a final concentration of 10 μM. The parameters used here were similar as in vivo BLI with is of exposure time and field of view C. The average radiance (p/s/cm^2/sr) of each brain section was quantified with the Living Image software (Caliper Life Sciences) and summed to compare the activity retention of RLuc8.6 among different groups.
# [3] = Mouse body weight analysis; assay type: in vivo; design: key to Significance of body weight difference between day 0 and 3 days after systemic administration: ns (not significant); details: for Weight loss: day 0 vs 2 days after injection, RLuc8.6 100 mg/kg, AADC-IKVAV 250 mg/kg
# Procedure: To assess the potential impact of the RAID approach on the body weight of the mice involved in behavior analysis (n=11 mice for the FUS alone+L-DOPA group and n=14 mice for the FUS+AADC-IKVAV (SEQ ID NO: 23)+L-DOPA group), their body weight was recorded on a daily basis before and after FUS-BBBO administration. […] The body weight of the additional group of mice was also recorded in a similar manner; however, unintentionally four mice were omitted from weighing on the day following the AADC-IKVAV (SEQ ID NO: 23) injection. Similarly, the mouse body weight was recorded before and after the intravenous injection of unmodified or engineered RLuc8.6, which is related to the study presented in FIG. 5.
# [4] = Immunohistochemical analysis of RLuc8.6 after FUS-BBBO delivery; assay type: in vivo, mouse; details: 150 mg/kg i.v., FUS-BBBO 4 sites left striatum, 1 h post-delivery
# From the text: as §1, with “The mice were then sequentially injected via tail vein with purified recombinant protein in PBS buffer and approximately 1.5×10^6 DEFINITY microbubbles (Lantheus) per gram of body weight diluted in sterile saline. Immediately after injections of protein and microbubbles, the mice were insonated using RK-50 FUS system with axial and lateral diameter of 5 mm and 1.2 mm, respectively.” left out
# Histological imaging—All histological images were obtained using a fluorescence microscope (BZ-X810, Keyence). To evaluate RLuc8.6 retention, as depicted in FIG. 2b and FIG. 3, we acquired fluorescence images of striatal sections using a ×4 objective in DAPI (nuclei) and far-red (RLuc8.6) channels. […]
# [5] = In vivo bioluminescent imaging (BLI) of RLuc8.6 in the head region; design: species or system mouse
# From the text: as §1
# In vivo BLI—Two groups of mice (n=7 mice for FUS+RLuc8.6 group and n=3 mice for FUS alone group) underwent FUS-BBBO targeting one site at left striatum immediately after i.v. injection of RLuc8.6 (2 mg/mL, 8 mg/kg) or equivalent volume of PBS buffer. The third group of mice (n=6) was injected intravenously with the same dose of RLuc8.6 without FUS-BBBO procedure. BLI was conducted 1 h, 24 h, 48 h and 96 h after FUS insonation with an IVIS spectrum imager (Perkin Elmer). […] The bioluminescence signal was quantified by calculating the average radiance (p/s/cm^2/sr) in the head region of view C imaging using the Living Image software (Caliper Life Sciences).
# [6] = FUS-BBBO + protein i.v., RLuc8.6-IKVAV 104 mg/kg
molecule,measurement,setting,value
NCCCC(=O)O [GABA],time the drug lasts in the brain after FUS-BBBO delivery,[1],approximately 100 minutes
"RLuc8.6-IKVAV: fusion of RLuc8.6 and ECM-mimicking peptide IKVAV (SEQ ID NO: 23) via GS linker; CDS SEQ ID NO: 18 (protein, misc_feature 1..1095 Synthetic: RLuc8.6-IKVAV) MRGSHHHHHHGMASMTGGQQMGRDLYDDDDKDPMASKVYDPEQRKRMITGPQWWARCKQMNVLDSFINYYDSEKHAENAVIFLHGNATSSYLWRHVVPHIEPVARCIIPDLIGMGKSGKSGNGSYRLLDHYKYLTAWFELLNLPKKIIFVGHDWGSALAFHYAYEHQDRIKAIVHMESVVDVIESWMGWPDIEEELALIKSEEGEKMVLENNFFVETLLPSKIMRKLEPEEFAAYLEPFKEKGEVRRPTLSWPREIPLVKGGKPDVVQIVRNYNAYLRASDDLPKLFIESDPGFFSNAIVEGAKKFPNTEFVKVKGLHFLQEDAPDEMGKYIKSFVERVLKNEQGGSGSSGGSGGSGGSGIKVAV",mean activity improvement over unmodified RLuc8.6,"[2]; 2 days after FUS-BBBO, sum of average radiance in five sections",2.3(±0.3) fold
same,bioluminescence vs RLuc8.6 alone control at 7 days,[2]; 7 days after FUS-BBBO,significantly different
same,level of bioluminescence vs control group without applying FUS,"[2]; FUS-BBBO delivery, stated with FIG. 5e (7 days)",113(±33) fold
same,duration of retention in the brain,[2]; after a single session of FUS-BBBO delivery,1 week
same,Significance of body weight difference between day 0 and 3 days after systemic administration,[3]; FUS-BBBO + protein i.v.,ns
same,weight loss on day 3 compared to day 0,[3]; FUS-BBBO + protein i.v.,no significant weight loss
same,Weight loss,[3]; [6],3.2±0.8%
"RLuc8.6: recombinant His-tagged luciferase, model protein enzyme converting coelenterazine into coelenteramide; CDS SEQ ID NO: 17 (protein, His tag; misc_feature 1..1032 Synthetic: RLuc8.6) MRGSHHHHHHGMASMTGGQQMGRDLYDDDDKDPMASKVYDPEQRKRMITGPQWWARCKQMNVLDSFINYYDSEKHAENAVIFLHGNATSSYLWRHVVPHIEPVARCIIPDLIGMGKSGKSGNGSYRLLDHYKYLTAWFELLNLPKKIIFVGHDWGSALAFHYAYEHQDRIKAIVHMESVVDVIESWMGWPDIEEELALIKSEEGEKMVLENNFFVETLLPSKIMRKLEPEEFAAYLEPFKEKGEVRRPTLSWPREIPLVKGGKPDVVQIVRNYNAYLRASDDLPKLFIESDPGFFSNAIVEGAKKFPNTEFVKVKGLHFLQEDAPDEMGKYIKSFVERVLKNEQ","average fluorescence intensity of RLuc8.6 immunostaining, FUS target region vs untargeted contralateral site",[4],significantly higher immunostaining signal
same,IVIS enzyme levels vs controls,"[5]; 8 mg/kg i.v., from 24 hours after FUS-BBBO onwards",statistically indistinguishable from controls
same,"bioluminescence signal averaged over the entire brain, FUS+RLuc8.6 vs RLuc8.6 alone without FUS","[5]; 8 mg/kg i.v., one FUS site left striatum, 1 h after FUS-BBBO, CTZ 3.5 mg/kg i.p.",2.2(±0.3) fold
same,upper threshold of enzyme concentration increase within the targeted site vs untargeted controls,[5]; calculated from volume of single BBB opening site (1% of brain volume),approximately 220 fold
same,enzyme function within the brain parenchyma,[2]; 7-day timepoint,remain functional
same,Significance of body weight difference between day 0 and 3 days after systemic administration,[3]; FUS-BBBO + protein i.v.,ns
same,weight loss on day 3 compared to day 0,[3]; FUS-BBBO + protein i.v.,no significant weight loss
same,Weight loss,[3]; [6],3.4±0.7%
same,Significance of body weight difference between day 0 and 3 days after systemic administration,[3]; protein i.v. alone without FUS,ns
same,Weight loss,[3]; protein i.v. alone without FUS,2.1 ± 0.6%
